In the supplement of paper PMC10724198:
± gives the standard deviation of the averaged measurements.

Columns and labels:
Saccharomyces cerevisiae [1] = assay: protein stability index of tFT-peptide fusion (C-terminal peptide) (PSI (0-1 scale)); higher = more stable (slower turnover)
Description: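 MPS profiling in S. cerevisiae of the tFT-X12 degron library: putative degron peptides plus stable controls, 12 aa, fused to the C-terminus of a sfGFP-mCherry timer. Cells are FACS-sorted into 8 mCherry/sfGFP bins and deep-sequenced. PSI runs from 0 (unstable) to 1 (stable). Backgrounds are wild type, das1Δ and doa10Δ at 30 °C, and wild type, das1Δ, cdc34-1 and cdc53-1 at 37 °C; 2-3 technical replicates each.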

Saccharomyces cerevisiae [2] = assay: as above; conditions: genetic background: wild type; temperature: 30 C
[3] = genetic background: cdc34-1, temperature: 37 C
[4] = genetic background: cdc53-1, temperature: 37 C
[5] = genetic background: das1 deletion, temperature: 30 C
[6] = genetic background: das1 deletion, temperature: 37 C
[7] = genetic background: doa10 deletion, temperature: 30 C
[8] = genetic background: wild type, temperature: 30 C
[9] = genetic background: wild type, temperature: 37 C
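Further: PSI is a weighted mean of sequencing reads over stability bins, variants kept only with over 10 reads, mCherry proximal and sfGFP distal, peptide attached via GGGS linker.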

VCFCFLRFLSLL
protein stability index (Saccharomyces cerevisiae [1]; [3]): 0.543 ± 0.043 | protein stability index (Saccharomyces cerevisiae [1]; [4]): 0.685 ± 0.014 | protein stability index (Saccharomyces cerevisiae [1]; [5]): 0.572 ± 0.031 | protein stability index (Saccharomyces cerevisiae [1]; [6]): 0.716 ± 0.031 | protein stability index (Saccharomyces cerevisiae [1]; [7]): 0.176 ± 0.0026 | protein stability index (Saccharomyces cerevisiae [1]; [8]): 0.191 ± 0.0057 | protein stability index (Saccharomyces cerevisiae [1]; [9]): 0.24 ± 0.019 | protein stability index (Saccharomyces cerevisiae [2]): 0.262 ± 0.016

VCFFSSSCFLLV
protein stability index (Saccharomyces cerevisiae [1]; [3]): 0.58 ± 0.026 | protein stability index (Saccharomyces cerevisiae [1]; [4]): 0.607 ± 0.015 | protein stability index (Saccharomyces cerevisiae [1]; [5]): 0.507 ± 0.021 | protein stability index (Saccharomyces cerevisiae [1]; [6]): 0.623 ± 0.01 | protein stability index (Saccharomyces cerevisiae [1]; [7]): 0.463 ± 0.0036 | protein stability index (Saccharomyces cerevisiae [1]; [8]): 0.45 ± 0.033 | protein stability index (Saccharomyces cerevisiae [1]; [9]): 0.567 ± 0.0069 | protein stability index (Saccharomyces cerevisiae [2]): 0.47 ± 0.035

VCLVFVVRPCIR
protein stability index (Saccharomyces cerevisiae [1]; [3]): 0.549 ± 0.021 | protein stability index (Saccharomyces cerevisiae [1]; [4]): 0.578 ± 0.023 | protein stability index (Saccharomyces cerevisiae [1]; [5]): 0.436 ± 0.033 | protein stability index (Saccharomyces cerevisiae [1]; [6]): 0.606 ± 0.022 | protein stability index (Saccharomyces cerevisiae [1]; [7]): 0.401 ± 0.0078 | protein stability index (Saccharomyces cerevisiae [1]; [8]): 0.414 ± 0.023 | protein stability index (Saccharomyces cerevisiae [1]; [9]): 0.599 ± 0.0089 | protein stability index (Saccharomyces cerevisiae [2]): 0.4904 ± 0.0027

VCLWAIHLSGCW
protein stability index (Saccharomyces cerevisiae [1]; [3]): 0.546 ± 0.046 | protein stability index (Saccharomyces cerevisiae [1]; [4]): 0.601 ± 0.048 | protein stability index (Saccharomyces cerevisiae [1]; [5]): 0.46 ± 0.022 | protein stability index (Saccharomyces cerevisiae [1]; [6]): 0.58776 ± 0.00056 | protein stability index (Saccharomyces cerevisiae [1]; [7]): 0.453 ± 0.021 | protein stability index (Saccharomyces cerevisiae [1]; [8]): 0.449 ± 0.03 | protein stability index (Saccharomyces cerevisiae [1]; [9]): 0.584 ± 0.014 | protein stability index (Saccharomyces cerevisiae [2]): 0.475 ± 0.035

VCNYRKLIWKHH
protein stability index (Saccharomyces cerevisiae [1]; [3]): 0.52 ± 0.024 | protein stability index (Saccharomyces cerevisiae [1]; [4]): 0.661 ± 0.047 | protein stability index (Saccharomyces cerevisiae [1]; [5]): 0.653 ± 0.015 | protein stability index (Saccharomyces cerevisiae [1]; [6]): 0.746 ± 0.029 | protein stability index (Saccharomyces cerevisiae [1]; [7]): 0.0622 ± 0.031 | protein stability index (Saccharomyces cerevisiae [1]; [8]): 0.0668 ± 0.033 | protein stability index (Saccharomyces cerevisiae [1]; [9]): 0.13 ± 0.012 | protein stability index (Saccharomyces cerevisiae [2]): 0.181 ± 0.023

VCVLRWAVAPCR
protein stability index (Saccharomyces cerevisiae [1]; [3]): 0.287 ± 0.0041 | protein stability index (Saccharomyces cerevisiae [1]; [4]): 0.342 ± 0.0038 | protein stability index (Saccharomyces cerevisiae [1]; [5]): 0.245 ± 0.035 | protein stability index (Saccharomyces cerevisiae [1]; [6]): 0.429 ± 0.0067 | protein stability index (Saccharomyces cerevisiae [1]; [7]): 0.207 ± 0.0051 | protein stability index (Saccharomyces cerevisiae [1]; [8]): 0.235 ± 0.032 | protein stability index (Saccharomyces cerevisiae [1]; [9]): 0.399 ± 0.013 | protein stability index (Saccharomyces cerevisiae [2]): 0.356 ± 0.027

VCWCVVVLEFGL
protein stability index (Saccharomyces cerevisiae [1]; [3]): 0.15 ± 0.049 | protein stability index (Saccharomyces cerevisiae [1]; [4]): 0.367 ± 0.15 | protein stability index (Saccharomyces cerevisiae [1]; [5]): 0.197 ± 0.031 | protein stability index (Saccharomyces cerevisiae [1]; [6]): 0.363 ± 0.0062 | protein stability index (Saccharomyces cerevisiae [1]; [7]): 0.168 ± 0.012 | protein stability index (Saccharomyces cerevisiae [1]; [8]): 0.185 ± 0.029 | protein stability index (Saccharomyces cerevisiae [1]; [9]): 0.267 ± 0.044 | protein stability index (Saccharomyces cerevisiae [2]): 0.313 ± 0.013

VECPWFCLGVLA
protein stability index (Saccharomyces cerevisiae [1]; [3]): 0.336 ± 0.027 | protein stability index (Saccharomyces cerevisiae [1]; [4]): 0.318 ± 0.018 | protein stability index (Saccharomyces cerevisiae [1]; [5]): 0.278 ± 0.04 | protein stability index (Saccharomyces cerevisiae [1]; [6]): 0.4359 ± 0.0013 | protein stability index (Saccharomyces cerevisiae [1]; [7]): 0.2324 ± 0.001 | protein stability index (Saccharomyces cerevisiae [1]; [8]): 0.284 ± 0.022 | protein stability index (Saccharomyces cerevisiae [1]; [9]): 0.416 ± 0.0065 | protein stability index (Saccharomyces cerevisiae [2]): 0.3848 ± 0.0018

VERKLMTIYIKI
protein stability index (Saccharomyces cerevisiae [1]; [3]): 0.6106 ± 0.0052 | protein stability index (Saccharomyces cerevisiae [1]; [4]): 0.6479 ± 0.003 | protein stability index (Saccharomyces cerevisiae [1]; [5]): 0.451 ± 0.018 | protein stability index (Saccharomyces cerevisiae [1]; [6]): 0.6806 ± 0.0061 | protein stability index (Saccharomyces cerevisiae [1]; [7]): 0.492 ± 0.015 | protein stability index (Saccharomyces cerevisiae [1]; [8]): 0.499 ± 0.063 | protein stability index (Saccharomyces cerevisiae [1]; [9]): 0.6076 ± 0.00061 | protein stability index (Saccharomyces cerevisiae [2]): 0.493 ± 0.005

VFAFVVFLHFEC
protein stability index (Saccharomyces cerevisiae [1]; [3]): 0.188 ± 0.015 | protein stability index (Saccharomyces cerevisiae [1]; [4]): 0.296 ± 0.048 | protein stability index (Saccharomyces cerevisiae [1]; [5]): 0.237 ± 0.036 | protein stability index (Saccharomyces cerevisiae [1]; [6]): 0.375 ± 0.013 | protein stability index (Saccharomyces cerevisiae [1]; [7]): 0.184 ± 0.012 | protein stability index (Saccharomyces cerevisiae [1]; [8]): 0.238 ± 0.029 | protein stability index (Saccharomyces cerevisiae [1]; [9]): 0.375 ± 0.066 | protein stability index (Saccharomyces cerevisiae [2]): 0.31 ± 0.0057

VFFCLFWFFCSF
protein stability index (Saccharomyces cerevisiae [1]; [3]): 0.54 ± 0.009 | protein stability index (Saccharomyces cerevisiae [1]; [4]): 0.571 ± 0.057 | protein stability index (Saccharomyces cerevisiae [1]; [5]): 0.482 ± 0.031 | protein stability index (Saccharomyces cerevisiae [1]; [6]): 0.54 ± 0.0084 | protein stability index (Saccharomyces cerevisiae [1]; [7]): 0.454 ± 0.0066 | protein stability index (Saccharomyces cerevisiae [1]; [8]): 0.453 ± 0.017 | protein stability index (Saccharomyces cerevisiae [1]; [9]): 0.492 ± 0.012 | protein stability index (Saccharomyces cerevisiae [2]): 0.51 ± 0.12

VFFVTSCWVFRG
protein stability index (Saccharomyces cerevisiae [1]; [3]): 0.416 ± 0.018 | protein stability index (Saccharomyces cerevisiae [1]; [4]): 0.574 ± 0.019 | protein stability index (Saccharomyces cerevisiae [1]; [5]): 0.432 ± 0.022 | protein stability index (Saccharomyces cerevisiae [1]; [6]): 0.64 ± 0.022 | protein stability index (Saccharomyces cerevisiae [1]; [7]): 0.0921 ± 0.02 | protein stability index (Saccharomyces cerevisiae [1]; [8]): 0.109 ± 0.028 | protein stability index (Saccharomyces cerevisiae [1]; [9]): 0.208 ± 0.029 | protein stability index (Saccharomyces cerevisiae [2]): 0.1794 ± 0.0015

VFGFSLLTLLVL
protein stability index (Saccharomyces cerevisiae [1]; [3]): 0.441 ± 0.0078 | protein stability index (Saccharomyces cerevisiae [1]; [4]): 0.511 ± 0.025 | protein stability index (Saccharomyces cerevisiae [1]; [5]): 0.386 ± 0.0081 | protein stability index (Saccharomyces cerevisiae [1]; [6]): 0.5062 ± 0.0021 | protein stability index (Saccharomyces cerevisiae [1]; [7]): 0.324 ± 0.011 | protein stability index (Saccharomyces cerevisiae [1]; [8]): 0.347 ± 0.024 | protein stability index (Saccharomyces cerevisiae [1]; [9]): 0.467 ± 0.019 | protein stability index (Saccharomyces cerevisiae [2]): 0.439 ± 0.022

VFRRWGLIGVIV
protein stability index (Saccharomyces cerevisiae [1]; [3]): 0.306 ± 0.026 | protein stability index (Saccharomyces cerevisiae [1]; [4]): 0.326 ± 0.022 | protein stability index (Saccharomyces cerevisiae [1]; [5]): 0.278 ± 0.041 | protein stability index (Saccharomyces cerevisiae [1]; [6]): 0.434 ± 0.018 | protein stability index (Saccharomyces cerevisiae [1]; [7]): 0.181 ± 0.0038 | protein stability index (Saccharomyces cerevisiae [1]; [8]): 0.226 ± 0.032 | protein stability index (Saccharomyces cerevisiae [1]; [9]): 0.353 ± 0.0088 | protein stability index (Saccharomyces cerevisiae [2]): 0.378 ± 0.0068

VFSGGGFFLKVV
protein stability index (Saccharomyces cerevisiae [1]; [3]): 0.67453 ± 9.2e-05 | protein stability index (Saccharomyces cerevisiae [1]; [4]): 0.765 ± 0.01 | protein stability index (Saccharomyces cerevisiae [1]; [5]): 0.651 ± 0.024 | protein stability index (Saccharomyces cerevisiae [1]; [6]): 0.755 ± 0.022 | protein stability index (Saccharomyces cerevisiae [1]; [7]): 0.19 ± 0.0039 | protein stability index (Saccharomyces cerevisiae [1]; [8]): 0.215 ± 0.023 | protein stability index (Saccharomyces cerevisiae [1]; [9]): 0.504 ± 0.02 | protein stability index (Saccharomyces cerevisiae [2]): 0.3766 ± 0.0029

VFSVSVLFLFFH
protein stability index (Saccharomyces cerevisiae [1]; [3]): 0.286 ± 0.0084 | protein stability index (Saccharomyces cerevisiae [1]; [4]): 0.392 ± 0.0056 | protein stability index (Saccharomyces cerevisiae [1]; [5]): 0.282 ± 0.034 | protein stability index (Saccharomyces cerevisiae [1]; [6]): 0.456 ± 0.015 | protein stability index (Saccharomyces cerevisiae [1]; [7]): 0.251 ± 0.011 | protein stability index (Saccharomyces cerevisiae [1]; [8]): 0.242 ± 0.038 | protein stability index (Saccharomyces cerevisiae [1]; [9]): 0.381 ± 0.019 | protein stability index (Saccharomyces cerevisiae [2]): 0.377 ± 0.032

VFVLFCAFVRAL
protein stability index (Saccharomyces cerevisiae [1]; [3]): 0.212 ± 0.025 | protein stability index (Saccharomyces cerevisiae [1]; [4]): 0.413 ± 0.032 | protein stability index (Saccharomyces cerevisiae [1]; [5]): 0.286 ± 0.036 | protein stability index (Saccharomyces cerevisiae [1]; [6]): 0.482 ± 0.014 | protein stability index (Saccharomyces cerevisiae [1]; [7]): 0.0841 ± 0.013 | protein stability index (Saccharomyces cerevisiae [1]; [8]): 0.0907 ± 0.0079 | protein stability index (Saccharomyces cerevisiae [1]; [9]): 0.096736 ± 8.4e-05 | protein stability index (Saccharomyces cerevisiae [2]): 0.2111 ± 0.00022

VFVLFLRAVACR
protein stability index (Saccharomyces cerevisiae [1]; [3]): 0.0227 ± 0.0013 | protein stability index (Saccharomyces cerevisiae [1]; [4]): 0.0336 ± 0.0004 | protein stability index (Saccharomyces cerevisiae [1]; [5]): 0.0288 ± 0.0046 | protein stability index (Saccharomyces cerevisiae [1]; [6]): 0.0423 ± 0.0022 | protein stability index (Saccharomyces cerevisiae [1]; [7]): 0.0174 ± 0.0024 | protein stability index (Saccharomyces cerevisiae [1]; [8]): 0.0193 ± 0.0039 | protein stability index (Saccharomyces cerevisiae [1]; [9]): 0.0342 ± 0.015 | protein stability index (Saccharomyces cerevisiae [2]): 0.0236 ± 0.013

VFVMVLCALFYF
protein stability index (Saccharomyces cerevisiae [1]; [3]): 0.248 ± 0.034 | protein stability index (Saccharomyces cerevisiae [1]; [4]): 0.282 ± 0.04 | protein stability index (Saccharomyces cerevisiae [1]; [5]): 0.242 ± 0.032 | protein stability index (Saccharomyces cerevisiae [1]; [6]): 0.38 ± 0.032 | protein stability index (Saccharomyces cerevisiae [1]; [7]): 0.2436 ± 0.0014 | protein stability index (Saccharomyces cerevisiae [1]; [8]): 0.236 ± 0.017 | protein stability index (Saccharomyces cerevisiae [1]; [9]): 0.319 ± 0.015 | protein stability index (Saccharomyces cerevisiae [2]): 0.279 ± 0.022

VFYRPFFVLFFV
protein stability index (Saccharomyces cerevisiae [1]; [3]): 0.246 ± 0.026 | protein stability index (Saccharomyces cerevisiae [1]; [4]): 0.228 ± 0.004 | protein stability index (Saccharomyces cerevisiae [1]; [5]): 0.265 ± 0.022 | protein stability index (Saccharomyces cerevisiae [1]; [6]): 0.413 ± 0.011 | protein stability index (Saccharomyces cerevisiae [1]; [7]): 0.113 ± 0.016 | protein stability index (Saccharomyces cerevisiae [1]; [8]): 0.0946 ± 0.022 | protein stability index (Saccharomyces cerevisiae [1]; [9]): 0.152 ± 0.0038 | protein stability index (Saccharomyces cerevisiae [2]): 0.114 ± 0.0065
